Results published in the nanobody polyreactivity screen of Harvey et al. (2022).

Assay: yeast display, Sf9 membrane polyspecificity reagent, FACS + sequencing; frameworks hold sequencing errors
Summary of the method: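 After 36–48 hours of galactose induction, yeast (Saccharomyces cerevisiae BJ5465) displaying a synthetic nanobody library were stained at 4 °C for 1 hour with 10% biotinylated, detergent-solubilized Sf9 membrane reagent. Streptavidin microbeads enriched the stained cells before FACS sorting into low and high (top ~1%) gates on anti-HA and streptavidin fluorescence. Each clone's polyreactivity label reflects its gate of origin.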

| Sequence | polyreactivity (PSR sort gate) |
| --- | --- |
| QVQLVESGGGLVQAGGSLRLSCAASGRILYPYAMGWYIQAPGKERELVAAITFIGGSTYYADSVKGRFTISRDNAKNTVYLQMNSLKPEDTAVYYCNAKPHRPSLLRWRIGNYWGQGTQVTVSS | high polyreactivity |
| QVQLVESGGGLVQAGGSLRLSCAASGRILYPYAMGWYRQAPGKERELVAAITFRGGNTYYADSVKGRFTISRDNAKNTVYLQMNSLKPEDTAVYYCAKRGGYWHKFDYWGQGTQVTVSS | high polyreactivity |
| QVQLVESGGGLVQAGGSLRLSCAASGRILYRYAMGWYRQATGKERELVAAISWSGGSTYYADSVKGRFTISRDNAKNSVYLQMNSLKPEDTAVYYCAARYKRAYSRDYWGQGTQVTVSS | high polyreactivity |
| QVQLVESGGGLVQAGGSLRLSCAASGRILYSYAMGWYRQAPGKEREFVAAIRRSGGSTYYADSVKGRFTISRDNAKNTVYLQMNSLKPEDTAVYYCAAGRRYSGSYDYWGQGTQVTVSS | high polyreactivity |
| QVQLVESGGGLVQAGGSLRLSCAASGRILYVYAMGRYRQAPGKERELVAAITSGGSTHYADSVKGRFTISRDNAKNTVYLQMNSLKPEDTAVYYCAAYTLRNRGGFNYWGQGTQVTVSS | high polyreactivity |
| QVQLVESGGGLVQAGGSLRLSCAASGRILYWYALGWYRQAPGKERELVAAISRSGGSTSYADSVKGRFTISRDNAKNTVYLQMNSLKPEDTAVYYCAVDRFWRPVRSGTTYDYWGQGTQVTVSS | low polyreactivity |
| QVQLVESGGGLVQAGGSLRLSCAASGRILYYNDMGWYRQAPGKERELVAAIDRGGSTSYADSVKGRFTISRDNAMNTVYLQMNSLKQEDTAVYYCAVARGGRRKYEYWGQGTQVTVSS | low polyreactivity |
| QVQLVESGGGLVQAGGSLRLSCAASGRILYYYTMGWYRQAPGKEREFVAAISSRGGSTYADSVKGRFTISRDNAKNTVYLQMNSLKPEDTAVFYCNARLKPRWGGRYDYWGQGTQVTVSS | high polyreactivity |
| QVQLVESGGGLVQAGGSLRLSCAASGRILYYYVMGWYRPAPGKEREFVAAISSSASNTYYADSVKGRITISRDNAKNTVEFQMNSLKPEDTAVYYCAADTLWLDWQGYDYWGQGTQVTVSS | low polyreactivity |
| QVQLVESGGGLVQAGGSLRLSCAASGRILYYYVMGWYRQAPGKERELVAAITRGGSTDYADSVKGRFTISLDNAKNTVYLQMNSLKPEDTAVYYCAAVVYLHYSVDYWGQGSQVTVSS | low polyreactivity |
| QVQLVESGGGLVQAGGSLRLSCAASGRINYFYAIVWSRQAPGKEQELVAAISTSGGSTYYADCVKGRFTISRDNAKNTLYLQMNSLTPEETAVYDCAARFRYYGSEYDYWGQGTQVTVSS | low polyreactivity |
| QVQLVESGGGLVQAGGSLRLSCAASGRIPVNAMGWYRQAPVKERELVAAISVSGGSTNYADSVKGRFTISRDNAKNTVYLQMNSLKPEDTAVYYCNADPDWWYPYNYWGQGTQVTLSS | low polyreactivity |
| QVQLVESGGGLVQAGGSLRLSCAASGRIQYNAMGWYRQAPGKEREFVAAISWSGGTTYYADSVKGRFTISRDNAKNTVYLQMNRLKPEDTAVYYCATPYTHWGQGTQVTVSS | high polyreactivity |
| QVQLVESGGGLVQAGGSLRLSCAASGRISDVYVMVWYRQAPGKERELFAAITWSGGDTYYADSVKGRFTISRDNAKNTVYLQMNSLKPEDTEVYYCTADTGKWGGNGWYDFDYWGQGTQVTVSS | low polyreactivity |
| QVQLVESGGGLVQAGGSLRLSCAASGRISESNDMGWYRQAPGKEREVVAAISSSGGSTYYADSVKGRFTISRDNAKNTVYLQMNSLKPEETAVDYCNAVYYRTVLKIGVYEYDYWGQGTQVTVST | low polyreactivity |
| QVQLVESGGGLVQAGGSLRLSCAASGRISFYYAMGWYRQAPGKERELVAAISRGGSTYYADSVKGRFTISRDNAKNTVYLQMNSLKPEDTAVYYCAATYSGVDTPSGYDYWGQGTQVTVSS | low polyreactivity |
| QVQLVESGGGLVQAGGSLRLSCAASGRISFYYARGWSIQAPGKERELVAAISRGGSTYYADSVKGRFTISRDNAKNTVYLQMNSLKPEDTAVYYCAATYSVVDTPSGYDYWGQGTLVTVSS | low polyreactivity |
| QVQLVESGGGLVQAGGSLRLSCAASGRISGYAMGWYRQAPGKERELVAAISTRGGTTYYADSVKGRFTISRDNAKNTVYLQMNSLSPEDTAVYYCNAASSRWPEYDYWGQGTQVTVSS | high polyreactivity |
| QVQLVESGGGLVQAGGSLRLSCAASGRISGYYAMGWYRQAPGKEREFVAAITRSGGSTYYADSVKGRFTISRDNAKNTVYLQMNSLKPEDTAVYYCAADTRGFSYGNGYGYWGQGTQVTVSS | low polyreactivity |
| QVQLVESGGGLVQAGGSLRLSCAASGRISIKNAMGWYRQAPGQERELVAAIRWSADSTYYADSVKGRFTISRDNAKTTVYLQMNSLKPEDTAVYYCAATGRLRYYWGQGTQVNVSS | high polyreactivity |
| QVQLVESGGGLVQAGGSLRLSCAASGRISIWYAMGWYRQAPGKERELVARISTSSGRTYYADSVKGRFTISRDNAKNTVYLQMNSLKPEDTAVYYCNAAGYRIYFSTRYDYWGQGTQVTVSS | high polyreactivity |
| QVQLVESGGGLVQAGGSLRLSCAASGRISIWYDMGWYIQAPGKEREFVASITSGGSTYADSVKGRFTISRDNAKNTVYLQMNSLKPEDTAVYYCAADEAPYVPSEQRHSRFSHWGQGTQVTVSS | low polyreactivity |

| Sequence | polyreactivity (PSR sort gate) |
| --- | --- |
| QVQLVESGGGLVQAGGSLRLSCAASGRISKGYAMGWYRPAPGKERELVAAISWRTSSTYYADSVKGRFTISRDNAKNTVYLQMNSLKPEANAVYYCAAETWLGSWRQVGMDYWGQGTQVTVSS | high polyreactivity |
| QVQLVESGGGLVQAGGSLRLSCAASGRISLSNAMGWYRQAPGKEREFVAAITKRSDRTYYADSVKGRFTISRDNAKNTVSLQMNSLKPEDTAVYYCAAKPLFGTRDDYWGQGTQVTVSS | low polyreactivity |
| QVQLVESGGGLVQAGGSLRLSCAASGRISNDYAMGWYRQAPGKDRELVATITFSGGDTYYADSVKGRFTISRDHAKNTVYLQMNSLKPEDTAVYYCAASKWPSYSGGWWRLLFDYWGQGTQVTVSS | low polyreactivity |
| QVQLVESGGGLVQAGGSLRLSCAASGRISNKYAMGSYRQAPGKERELVAAISYSGGTTYYADSVKGRFTISRDNAKNTVYLQMNSLKPEDTAVYYCARVWSKGYGYYWGYYWGQGSQVTVSS | low polyreactivity |
| QVQLVESGGGLVQAGGSLRLSCAASGRISNRYAMGWYRQAPGKERELVAAIRRSTTSTYADSVKGRFTISRDNEKNTFYLQMNSLKPEYTAVYYCAARGGRRGGYYSWGQGTQVTVSA | high polyreactivity |
| QVQLVESGGGLVQAGGSLRLSCAASGRISPNNAMGWYRQAPGKERELVAAITASGGTTYYADSVKGRFTISRDNAKNTVYLQMNSLKPEDTAVYYCAAAVWYRGWYRYDYWGQGTQVTVSS | low polyreactivity |
| QVQLVESGGGLVQAGGSLRLSCAASGRISPVYAMGWYRQAPGKERELVAAITSGGSTNYADSVKGRFTISRDNAQNTVYLQMNSLKPEDTAVYYCAVEGFSSAAYDFEYWGQGTQVTVSS | high polyreactivity |
| QVQLVESGGGLVQAGGSLRLSCAASGRISRLYAMGWYRPAPGKERELVAAITDSGGSTYYADSVKGRFTISRDTAKNTVYLQMNSLKPEDTAVYYCAATWSNWYREYYYWGQGTQVTVSS | high polyreactivity |
| QVQLVESGGGLVQAGGSLRLSCAASGRISRRNAMGWYRQAPGKEREFVATITSSGGCTYYADSVKGRFTISRDNAKNTVYLQMNSLKPEDTAVYYCAARVRGRYTEDYWGQGTQVTVSS | high polyreactivity |
| QVQLVESGGGLVQAGGSLRLSCAASGRISSANAMGWYRPAPGKERELVAAITWSGGSTYYADSVKGRFTISRDNAKNTVYIQMNSMKQEDTAVYYCAAESSAYGGGTSDAGYESDYWGQGTQVTVSS | low polyreactivity |
| QVQLVESGGGLVQAGGSLRLSCAASGRISSIYAMGCYRQAPGKERELVATISVRTTGTYYADSVKGRFTISRDNAKNTVYLQMNSLKPEDTAVYYCAAAKRRGYYVKYDYWGQGTQVTVSS | high polyreactivity |
| QVQLVESGGGLVQAGGSLRLSCAASGRISVRNAMGWYRQAPGKERELVATIRSGGSTNYADSVKGRFTISRDNAKNTVYLQMYSLKPEDTAVYYCATAKLTWRSQGLDYWGQGTQVTVSS | low polyreactivity |
| QVQLVESGGGLVQAGGSLRLSCAASGRISYGNGMGWYIQAPGKERELVAAISWSTTRTYYADSVKGRFTISRDYAKNTVYLQMNSLKPEDTAVYYCNAAGRPYDFSGGRTMEYWGQGTQVTVSS | high polyreactivity |
| QVQLVESGGGLVQAGGSLRLSCAASGRISYYAMGWYRQAPGKERELVAVISSRGGSTYYADSVKGRFTISRDNAKNTVYLQMNSLKPEDTAVYYCAADLYYDAWRLYVLGYATMDYWGQGTQVTVSS | high polyreactivity |
| QVQLVESGGGLVQAGGSLRLSCAASGRITFRNAMVWYRQAPGKERELVASITSGGSTYYADSVKGRFTISRDNAKNTVYLQMNSLKPEDTAVYYCAGEGTARTSPPMDYWGQGTQVTVSS | high polyreactivity |
| QVQLVESGGGLVQAGGSLRLSCAASGRITFSHNTMGWYRQAPGKERELVAAISSGGRTNYADSVKGRFTISRDNAKNTVYLQMNSLKPEDTGVYYCARESHYDFIYDGMDYWGQGTQVTVSS | low polyreactivity |
| QVQLVESGGGLVQAGGSLRLSCAASGRIVGWYAMGWYRQAPGKERELVAGINYGGGRTYYADSVKGRFTISRDNAKNTVYLQMNSLKPEDTAVYYCAAGISGHYYWGQGTQVTVSS | high polyreactivity |
| QVQLVESGGGLVQAGGSLRLSCAASGRIVKRNAMGWYRHAPGKERELVAAISYSGGSTYYADSVKGRFTISRDNAKNTVYLEMMSLKPEDTAVYYCAVDRYPTGITKYDYWGQGTQVTVSS | high polyreactivity |
| QVQLVESGGGLVQAGGSLRLSCAASGRIVKYAMGWYRQAPGKERELVAAITSGGSTTYADSVKGRFTISRDNAKNTVYLQMNSLKPEDTAVYYCKALRRARYTRKGYEYWGQGTQVTVSS | high polyreactivity |
| QVQLVESGGGLVQAGGSLRLSCAASGRIVSGYVMGWYRQAPGKERELVAVISRSGGSTYYADSVKGRFTISRDNAKNTVYLQMNSLKPEDTAVYYCDAKHIDGSRGYDYWGQGTQVTVSS | low polyreactivity |
| QVQLVESGGGLVQAGGSLRLSCAASGRIVTAYAMGWYRPAPGKEREFVAAISSSGGSTYADSVKGRFTISRDNAKNTVYLQINSLKPEDTAVYYCAARYGFYWFPGYYYWGQGTQVTVSS | low polyreactivity |
